# Laboratory results as given in paper PMC9744887, “Structural mechanism of signal transduction in a phytochrome histidine kinase” (Nature Communications, 2022).
# Target: the molecule itself
# Assay: cryo-EM structure; single-particle cryo-EM of DrBphP-DrRR in the Pr state: 780 nm far-red light on the grid; 1-1.5 mg/ml protein with 10 mM CaCl2, 10 mM MgCl2, 4 mM AMP-PNP; Vitrobot at 4 °C; no symmetry imposed
Protein,stoichiometry N,binding result
"DrBphP-DrRR fusion protein (Deinococcus radiodurans phytochrome fused to its response regulator by a 12 amino acid tether) (other, biliverdin (BV) chromophore; lysate incubated with a molar excess of biliverdin hydrochloride, 938-aa construct in pET21b(+), counting the N-terminal T7-tag and the C-terminal His6-tag; Models were built up to Leu591 (Pr) and for residues 22-521 (Pfr); also called full-length DrBphP-DrRR; source: E. coli BL21 (DE3), purified (NiNTA, size-exclusion chromatography)) MSRDPLPFFPPLYLGGPEITTENCEREPIHIPGSIQPHGALLTADGHSGEVLQMSLNAATFLGQEPTVLRGQTLAALLPEQWPALQAALPPGCPDALQYRATLDWPAAGHLSLTVHRVGELLILEFEPTEAWDSTGPHALRNAMFALESAPNLRALAEVATQTVRELTGFDRVMLYKFAPDATGEVIAEARREGLHAFLGHRFPASDIPAQARALYTRHLLRLTADTRAAAVPLDPVLNPQTNAPTPLGGAVLRATSPMHMQYLRNMGVGSSLSVSVVVGGQLWGLIACHHQTPYVLPPDLRTTLEYLGRLLSLQVQVKEAADVAAFRQSLREHHARVALAAAHSLSPHDTLSDPALDLLGLMRAGGLILRFEGRWQTLGEVPPAPAVDALLAWLETQPGALVQTDALGQLWPAGADLAPSAAGLLAISVGEGWSECLVWLRPELRLEVAWGGATPDQAKDDLGPRHSFDTYLEEKRGYAEPWHPGEIEEAQDLRDTLTGALGERLSVIRDLNRALTQSNAEWRQYGFVISHHMQEPVRLISQFAELLTRQPRAQDGSPDSPQTERITGFLLRETSRLRSLTQDLHTYTALLSAPPPVRRPTPLGRVVDDVLQDLEPRIADTGASIEVAPELPVIAADAGLLRDLLLHLIGNALTFGGPEPRIAVRTERQGAGWSIAVSDQGAGIAPEYQERIFLLFQRLGSLDEALGNGLGLPLCRKIAELHGGTLTVESAPGEGSTFRCWLPDAGPLPGAADAASSAGGSAGSAGMPERASVPLRLLLVEDNAADIFLMEMALEYSSVHTELLVARDGLEALELLEQAKTGGPFPDLILLDLNMPRVDGFELLQALRADPHLAHLPAIVLTTSNDPSDVKRAYALQANSYLTKPSTLEDFLQLIERLTAYWFGTAAIPQTYQPQ",2,–
"Phytochrome from Deinococcus radiodurans (DrBphP), as the phytochrome part of the DrBphP-DrRR fusion (enzyme, biliverdin (BV) chromophore; lysate incubated with a molar excess of biliverdin hydrochloride, see m1; also called full-length DrBphP; source: E. coli BL21 (DE3), purified (NiNTA, size-exclusion chromatography), as part of the fusion m1) MSRDPLPFFPPLYLGGPEITTENCEREPIHIPGSIQPHGALLTADGHSGEVLQMSLNAATFLGQEPTVLRGQTLAALLPEQWPALQAALPPGCPDALQYRATLDWPAAGHLSLTVHRVGELLILEFEPTEAWDSTGPHALRNAMFALESAPNLRALAEVATQTVRELTGFDRVMLYKFAPDATGEVIAEARREGLHAFLGHRFPASDIPAQARALYTRHLLRLTADTRAAAVPLDPVLNPQTNAPTPLGGAVLRATSPMHMQYLRNMGVGSSLSVSVVVGGQLWGLIACHHQTPYVLPPDLRTTLEYLGRLLSLQVQVKEAADVAAFRQSLREHHARVALAAAHSLSPHDTLSDPALDLLGLMRAGGLILRFEGRWQTLGEVPPAPAVDALLAWLETQPGALVQTDALGQLWPAGADLAPSAAGLLAISVGEGWSECLVWLRPELRLEVAWGGATPDQAKDDLGPRHSFDTYLEEKRGYAEPWHPGEIEEAQDLRDTLTGALGERLSVIRDLNRALTQSNAEWRQYGFVISHHMQEPVRLISQFAELLTRQPRAQDGSPDSPQTERITGFLLRETSRLRSLTQDLHTYTALLSAPPPVRRPTPLGRVVDDVLQDLEPRIADTGASIEVAPELPVIAADAGLLRDLLLHLIGNALTFGGPEPRIAVRTERQGAGWSIAVSDQGAGIAPEYQERIFLLFQRLGSLDEALGNGLGLPLCRKIAELHGGTLTVESAPGEGSTFRCWLPDAGPLPGAADA",–,binds
